Assay results published in patent publication US20220185889.

Target: CTLA-4 Ig functionalized with GzmB substrate (UniProt P16410)
Sequence (P16410 38-161): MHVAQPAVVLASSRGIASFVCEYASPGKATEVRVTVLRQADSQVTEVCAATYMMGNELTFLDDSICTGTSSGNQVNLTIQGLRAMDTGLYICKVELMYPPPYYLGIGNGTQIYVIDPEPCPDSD

B1: complement component S1 (enzyme, UniProt P09871 16-688, looked up, species assumed)
Complement C1s subcomponent: EPTMYGEILSPNYPQAYPSEVEKSWDIEVPEGYGIHLYFTHLDIELSENCAYDSVQIISGDTEEGRLCGQRSSNNPHSPIVEEFQVPYNKLQVIFKSDFSNEERFTGFAAYYVATDINECTDFVDVPCSHFCNNFIGGYFCSCPPEYFLHDDMKNCGVNCSGDVFTALIGEIASPNYPKPYPENSRCEYQIRLEKGFQVVVTLRREDFDVEAADSAGNCLDSLVFVAGDRQFGPYCGHGFPGPLNIETKSNALDIIFQTDLTGQKKGWKLRYHGDPMPCPKEDTPNSVWEPAKAKYVFRDVVQITCLDGFEVVEGRVGATSFYSTCQSNGKWSNSKLKCQPVDCGIPESIENGKVEDPESTLFGSVIRYTCEEPYYYMENGGGGEYHCAGNGSWVNEVLGPELPKCVPVCGVPREPFEEKQRIIGGSDADIKNFPWQVFFDNPWAGGALINEYWVLTAAHVVEGNREPTMYVGSTSVQTSRLAKSKMLTPEHVFIHPGWKLLEVPEGRTNFDNDIALVRLKDPVKMGPTVSPICLPGTSSDYNLMDGDLGLISGWGRTEKRDRAVRLKAARLPVAPLRKCKEVKVEKPTADAEAYVFTPNMICAGGEKGMDSCKGDSGGAFAVQDPNDKTKFYAAGLVSWGPQCGTYGLYTRVKNYVDWIMKTMQENSTPRED
in vitro cleavage assay: no cross-cleavage by matrix, complement, or immune proteases
